B1: Kelch-like protein 2 (Homo sapiens), O95198 (parent)
chain: METPPLPPACTKQGHQKPLDSKDDNTEKHCPVTVNPWHMKKAFKVMNELRSQNLLCDVTIVAEDMEISAHRVVLAACSPYFHAMFTGEMSESRAKRVRIKEVDGWTLRMLIDYVYTAEIQVTEENVQVLLPAAGLLQLQDVKKTCCEFLESQLHPVNCLGIRAFADMHACTDLLNKANTYAEQHFADVVLSEEFLNLGIEQVCSLISSDKLTISSEEKVFEAVIAWVNHDKDVRQEFMARLMEHVRLPLLPREYLVQRVEEEALVKNSSACKDYLIEAMKYHLLPTEQRILMKSVRTRLRTPMNLPKLMVVVGGQAPKAIRSVECYDFKEERWHQVAELPSRRCRAGMVYMAGLVFAVGGFNGSLRVRTVDSYDPVKDQWTSVANMRDRRSTLGAAVLNGLLYAVGGFDGSTGLSSVEAYNIKSNEWFHVAPMNTRRSSVGVGVVGGLLYAVGGYDGASRQCLSTVECYNATTNEWTYIAEMSTRRSGAGVGVLNNLLYAVGGHDGPLVRKSVEVYDPTTNAWRQVADMNMCRRNAGVCAVNGLLYVVGGDDGSCNLASVEYYNPTTDKWTVVSSCMSTGRSYAGVTVIDKPL
partner: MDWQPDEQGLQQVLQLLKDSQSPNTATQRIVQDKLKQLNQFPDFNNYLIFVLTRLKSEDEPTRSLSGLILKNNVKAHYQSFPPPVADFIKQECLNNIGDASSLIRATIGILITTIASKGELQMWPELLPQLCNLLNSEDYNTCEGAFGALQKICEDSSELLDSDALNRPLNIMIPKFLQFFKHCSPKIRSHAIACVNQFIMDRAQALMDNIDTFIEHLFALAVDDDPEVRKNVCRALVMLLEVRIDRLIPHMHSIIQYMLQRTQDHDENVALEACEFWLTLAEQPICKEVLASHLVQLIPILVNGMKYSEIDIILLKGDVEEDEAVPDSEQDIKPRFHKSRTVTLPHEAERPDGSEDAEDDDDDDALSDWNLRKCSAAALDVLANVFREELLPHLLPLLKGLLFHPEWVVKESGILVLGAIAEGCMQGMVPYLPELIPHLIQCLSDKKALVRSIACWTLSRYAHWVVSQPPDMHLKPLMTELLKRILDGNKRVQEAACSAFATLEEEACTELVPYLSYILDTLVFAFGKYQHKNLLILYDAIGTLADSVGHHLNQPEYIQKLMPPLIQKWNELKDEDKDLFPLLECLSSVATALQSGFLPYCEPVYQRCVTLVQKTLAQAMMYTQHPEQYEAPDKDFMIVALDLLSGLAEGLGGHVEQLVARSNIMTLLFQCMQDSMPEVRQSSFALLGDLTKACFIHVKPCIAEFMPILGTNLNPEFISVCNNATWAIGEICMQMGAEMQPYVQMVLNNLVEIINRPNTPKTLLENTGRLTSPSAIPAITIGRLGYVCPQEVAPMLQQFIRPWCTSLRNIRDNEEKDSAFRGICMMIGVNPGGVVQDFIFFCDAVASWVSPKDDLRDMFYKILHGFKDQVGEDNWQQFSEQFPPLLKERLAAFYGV
B2: Consortin (Homo sapiens), Q6PJW8 (parent)
chain: MDDSDTPTYYLQIEPQDGCHPGDSVERSVTCLPSASDENENQLDGDGHEHLTSSDSAMGKPQVSEQDSLNNNESCTLSCEVAAGENLQNTLCEASRDEQAFLGKDKKIPGKRSPRSKKGTAKKIPPGLFSGDIAPLMQEKVLSAVTYAVDDEEAAEVNANEQPEAPKLVLQSLFSLIRGEVEQLDSRALPLCLHQIAESYFQEEDYEKAMKFIQLERLYHEQLLANLSAIQEQWETKWKTVQPHTVTALRNSEKGFNGEDFERLTKICATHQDPLLSKHKIAAVEKSQERKCSTQLLVSEDPKEGGATTKESESKTCLGTESSKESQHTVEPLGSSPCCHQMDVQTDSPSLSVTAGKDHMEELLCSAEATLALHTQSSETAGSPSGPDSSEDACEDDSRLQLAQTEACQDVARIEGIAEDPKVFLSSKSKTEPLISPGCDRIPPALISEGKYSQAQRKELRLPLRDASEALPTDQLENNELNELQQPDLTDSDGKSPQAQADSDGSENVLCGNNQISDLGILLPEVCMAPEEKGDKDDQLNKETEDYLNSLLEGCLKDTEDSLSYEDNQDDDSDLLQDLSPEEASYSLQENLPSDESCLSLDDLAKRIEIAEVVPTEGLVSILKKRNDTVGDHPAQMQHKPSKRRVRFQEIDDSLDQDEVGGGSCILLVLLCIATVFLSVGGTALYCTFGDMESPVCTDFADNMDFYYTKLLQGVAELKHWIYLS
B3: Beta-taxilin (Homo sapiens), Q8N3L3 (parent)
chain: MEANHSEQLSAERQSTPPGDSSSLPSHNGLEKEDGQDSPTPVQPPEKEASVHPDISEELNRQLEDIINTYGSAASTAGKEGSARASEQPENAESPDNEDGDCEETTEEAGREPVASGEPPTVKEPVSNKEQKLEKKILKGLGKEANLLMQNLNKLQTPEEKFDFLFKKYAELLDEHRTEQKKLKLLQKKQVQIQKEKDQLQGEHSRAILARSKLESLCRELQRHNKTLKEEALQRAREEEEKRKEITSHFQSTLTDIQGQIEQQSERNMKLCQENTELAEKLKSIIDQYELREEHLDKIFKHRELQQKLVDAKLEQAQEMMKEAEERHKREKEYLLNQAAEWKLQAKVLKEQETVLQAQLTLYSGRFEEFQSTLTKSNEVFATFKQEMDKTTKKMKKLEKDTATWKARFENCNKALLDMIEEKALRAKEYECFVMKIGRLENLCRALQEERNELHKKIRDAEISEKDDQSQHNSDEEPESNVSVDQEIDAEEVNSVQTAVKNLATAFMIIHHPESTPHQSKETQPEIGSSQESADAALKEPEQPPLIPSRDSESPLPPLTPQAEAEGGSDAEPPSKASNSPAGLGAETQCEGLPVGAQADQASWKPEAEASGQAPQAPTEASLQKMEADVPAPACAAEEHVAAMVPACEPSRQPPRAAAEELPVGASAGPQPRNVADTNLEGVD

Variants of B1 are the subject of one assay. As to conditions: with tnpo2_human TNPO2, O14787.
For the variant A480T, the “effect of a mutation on the interaction” value is “with no effect”.

S68A: the “effect of a mutation on the interaction” value is “with no effect”.

The variants in a further assay derive from B2. As to conditions: with rop1a_human ROPN1, Q9HAT0.
Sequence of rop1a_human ROPN1, Q9HAT0 (Q9HAT0 whole entry): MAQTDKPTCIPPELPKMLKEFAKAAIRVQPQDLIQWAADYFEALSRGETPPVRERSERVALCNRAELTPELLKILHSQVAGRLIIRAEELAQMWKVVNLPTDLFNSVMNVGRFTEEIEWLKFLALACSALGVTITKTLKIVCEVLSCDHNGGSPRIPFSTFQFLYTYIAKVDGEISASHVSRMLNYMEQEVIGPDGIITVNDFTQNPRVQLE
With Q183R, the “effect of a mutation on the interaction” value is on record as “with no effect”.

Regarding R399C, the “effect of a mutation on the interaction” value was “with no effect”.

In a further assay the parent is B3. As to conditions: with cep70_human CEP70, Q8NHQ1.
Sequence of cep70_human CEP70, Q8NHQ1 (Q8NHQ1 whole entry): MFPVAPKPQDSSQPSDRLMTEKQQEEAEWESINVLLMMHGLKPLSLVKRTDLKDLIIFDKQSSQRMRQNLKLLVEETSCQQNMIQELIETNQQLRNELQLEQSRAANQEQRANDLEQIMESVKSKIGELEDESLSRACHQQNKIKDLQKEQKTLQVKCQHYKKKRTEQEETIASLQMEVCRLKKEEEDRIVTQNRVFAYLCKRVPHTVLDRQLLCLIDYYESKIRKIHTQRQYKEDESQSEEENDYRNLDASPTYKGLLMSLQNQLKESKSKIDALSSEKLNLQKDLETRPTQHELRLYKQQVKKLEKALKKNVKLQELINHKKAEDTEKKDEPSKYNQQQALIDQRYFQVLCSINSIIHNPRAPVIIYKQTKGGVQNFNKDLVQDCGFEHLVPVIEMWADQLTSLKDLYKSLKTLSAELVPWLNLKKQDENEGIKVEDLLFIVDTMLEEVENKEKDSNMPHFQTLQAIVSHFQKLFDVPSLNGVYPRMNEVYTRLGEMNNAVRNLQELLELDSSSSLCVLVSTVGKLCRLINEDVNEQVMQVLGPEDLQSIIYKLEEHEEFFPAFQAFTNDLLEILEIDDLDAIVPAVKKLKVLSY
For T523I, the “effect of a mutation on the interaction” value is reported as “with no effect”.

Consider T361A, for which the “effect of a mutation on the interaction” value is reported as “with no effect”.

For the origin of these results see IntAct's records for PubMed 31515488.
